Measured values taken from article PMC6007000 (Nature genetics, 2017).
Non-standard residues stand in square brackets, D forms with d. Residues, ends and D or L forms follow the SMILES beside them. No end group written: not given here. Lys(Me3) = C[N+](C)(C)CCCC[C@H](N)C(=O)O

Experiments:
[1] = biological target: BAF45c (residues 254–368), PHD1-2 region of DPF3 (Homo sapiens, UniProt Q92784); assay: Isothermal titration calorimetry of H3 tail peptides with DPF3; format: binding
[2] = biological target: PHD1-2 region of human BAF45c (DPF3), residues 254–368 (human) (UniProt Q92784); assay: ITC
Sequence of PHD1-2 region of human BAF45c (DPF3), residues 254–368 (human) (Q92784 254-368): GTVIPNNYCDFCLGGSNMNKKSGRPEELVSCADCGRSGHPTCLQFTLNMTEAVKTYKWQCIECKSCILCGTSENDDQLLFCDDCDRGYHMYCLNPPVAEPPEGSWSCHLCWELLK

Sequence of BAF45c (residues 254–368), PHD1-2 region of DPF3 (Q92784 254-368): as above

Row | Compound | Kd [2] [µM] | Kd [1] [µM]
1 | CC(=O)NCCCC[C@H](NC(=O)CNC(=O)CNC(=O)[C@@H](NC(=O)[C@H](CO)NC(=O)[C@H](CCCCN)NC(=O)[C@H](CCCNC(=N)N)NC(=O)[C@H](C)NC(=O)[C@H](CCCNC(=N)N)NC(=O)[C@@H](NC(=O)[C@H](CCC(N)=O)NC(=O)[C@H](CCCC[N+](C)(C)C)NC(=O)[C@@H](NC(=O)[C@H](CCCNC(=N)N)NC(=O)[C@H](C)N)[C@@H](C)O)[C@@H](C)O)[C@@H](C)O)C(=O)N[C@@H](C)C(=O)N1CCC[C@H]1C(=O)N[C@@H](CCCNC(=N)N)C(=O)N[C@@H](CCCCN)C(=O)O [H3K4me3/K14ac] (H-ART[Lys(Me3)]QTRARKSTGGK(Ac)APRK-OH) | – | 115
2 | ARTKQTRARKSTGGK(Ac)APRK [H3K4me0/K14ac] | – | 7.8
3 | H3K4me1K14Ac peptide (H3 tail, H3K4me1 and H3K14ac) | 20 | –

Second part, led by results:

Row | Kd [2] [µM] | Compound | Kd [1] [µM]
4 | 115 | H3K4me3K14Ac peptide (H3 tail, H3K4me3 and H3K14ac) | –
5 | 7.8 | H3K14Ac peptide (H3 tail, H3K4me0 and H3K14ac) | –
